Measured values published in paper PMC12182893, “Dimeric DNA Aptamers for the Spike Protein of SARS‐CoV‐2 Derived from a Structured Library with Dual Random Domains”.
Where two headings read alike, the source gives them in different places.

How the values were obtained:
[1] = target: Influenza hemagglutinin (HA) (influenza A/California/04/2009 (CAL 09), UniProt C3W5S1 18-530); experiment: dot blot (filter binding); details: protein: recombinant; chain copies: 3; label: radiolabel (32P)
SARS-CoV-1 spike protein = SARS-CoV-1 spike protein (SARS-CoV-1, UniProt P59594 14-1195); experiment: dot blot (filter binding); details: protein: recombinant; chain copies: 3; label: radiolabel (32P)
alpha-thrombin [2] = target: alpha-thrombin (human, UniProt P00734;P00734 328-363;364-622); details: protein: commercial; copies: 1;1; label: radiolabel (32P); 3-way junction, predicted
OC43 RBD = OC43 RBD (seasonal coronavirus OC43, UniProt P36334 333-607); experiment: dot blot (filter binding); 10 nM protein; details: protein: recombinant; label: radiolabel (32P); 3-way junction, predicted
HKU1 RBD = HKU1 RBD (seasonal coronavirus HKU1, UniProt Q5MQD0 325-607); experiment: dot blot (filter binding); 10 nM protein; details: protein: recombinant; label: radiolabel (32P); 3-way junction, predicted
NL63 RBD = NL63 RBD (seasonal coronavirus NL63, UniProt Q6Q1S2 481-616); experiment: dot blot (filter binding); 10 nM protein; details: protein: recombinant; label: radiolabel (32P); 3-way junction, predicted
229E RBD = 229E RBD (seasonal coronavirus 229E, UniProt P15423 293-435); experiment: dot blot (filter binding); 10 nM protein; details: protein: recombinant; label: radiolabel (32P); 3-way junction, predicted
alpha-thrombin [3] = target: alpha-thrombin (human, UniProt P00734;P00734 328-363;364-622); experiment: dot blot (filter binding)

Measured: binding result

B1: DRDA8 (structured_DNA)
DNA: TTACGTCAAGGTGTCACTCCTGTGGGTGGAATGGGGAAGGGAGTGTTTTTTTTTGTGAGATGTGTGGTGTGGAATGGGGAAGCATCTCTTTGGCGTG
no binding: [1] | SARS-CoV-1 spike protein | alpha-thrombin [2] | OC43 RBD | HKU1 RBD | NL63 RBD | 229E RBD

B2: DRDA10 (structured_DNA)
DNA: TTACGTCAAGGTGTCACTCCTGTGGGTGGAATGGGGAAGGGAGTGTTTTTTTTTTCGGAGATGTGTGTGTGAAACAGTGGGAAGCATCTCTTTGGCGTG
no binding: alpha-thrombin [3]
